# From patent US20150337012A1 (HOYA, published 2015)
# Where no end group is shown, it is not given here. The star is where a group is joined. FITC = O=C1OC2(c3ccc(O)cc3Oc3cc(O)ccc32)c2ccc(NC(=S)*)cc21; Ahx = NCCCCCC(=O)O
# B1: I-1010 phage in which the 3rd L was substituted with M and the 8th Q was substituted with A (peptide, not shown: large carriers)
# peptide: WHMSDLWANAWH
# notes: Phage with two substituted amino acids; also called L3M/Q8A
# B2: I-1010 phage in which the 1st W was substituted with F and the 8th Q was substituted with A (peptide, not shown: large carriers)
# peptide: FHLSDLWANAWH
# notes: Phage with two substituted amino acids; also called W1F/Q8A
# B3: I-1010 phage (peptide displayed phage from the D12 library) (peptide, not shown: large carriers)
# peptide: WHLSDLWQNAWH
# notes: tested as phage particles, 1x10^10 PFU per well
# Molecular target: T1, recombinant human EGFR/Fc chimera (rhEGFR, R&D Systems) (human, UniProt P00533 25-645)
# T1 construct: Bought reagent; Coated on the plate at 1 ug/well; also called genetically modified EGFR protein; not shown: human IgG1 Fc moiety of the chimera
# Experiment: substituted phage binding to plate-coated rhEGFR, titer ratio
# Protocol: A rhEGFR that is a target protein was added to a 96-well microplate to be 1 μg/well, and stood still at 4° C. overnight to be thus formed into a solid phase. A protein solution was removed, 300 μl of a blocking buffer (5 mg/mL BSA/TBS) was added and the mixture was incubated at 37° C. for 1 hour to thus block the wells. After removal of the blocking buffer, the wells were washed with 200 μl of 0.5% TBST (0.5% Tween20/TBS) being the washing solution three times and thereto was finally added 100 μl of 0.5% TEST. An amplification phage solution was added to the above described wells to have 1×10¹⁰ PFU and mixed by pipetting. In the reaction, the mixture was gently shaken at room temperature for 1 hour. The reaction solution was removed and the wells were washed with 200 μl of 0.5% TBST ten times, 100 μl of 0.2 M glycine-HCl (pH 2.2) was then added to the wells and stirred by pipetting, thereafter gently shaking at room temperature for 10 minutes. The eluate was collected to a microtube from the wells and added with 15 μl of 1 M Tris-HCl (pH 9.1) to be neutralized and a target binding phage solution was thus obtained. The binding ability of the collected phage was examined by a measurement of a titer.
row,Binder,binding result
1,"WHISDLWQNAWH (peptide, not shown: large carriers, also called L3I) [I-1010 amino acid substituted phage, 3rd L substituted with I]",binds
2,"WHMSDLWQNAWH (peptide, not shown: large carriers, also called L3M) [I-1010 amino acid substituted phage, 3rd L substituted with M]",binds
3,"FHLSDLWQNAWH (peptide, not shown: large carriers, also called W1F) [I-1010 amino acid substituted phage, 1st W substituted with F]",binds
4,B1,binds
5,"WHLSDLYQNAWH (peptide, not shown: large carriers, also called W7Y) [I-1010 amino acid substituted phage, 7th W substituted with Y]",binds
6,"WHVSDLWQNAWH (peptide, not shown: large carriers, also called L3V) [I-1010 amino acid substituted phage, 3rd L substituted with V]",binds
7,B2,binds
8,"WHLSDLFQNAWH (peptide, not shown: large carriers, also called W7F) [I-1010 amino acid substituted phage, 7th W substituted with F]",binds

# Molecular target: T2, EGFR expressed by A-431 cells (human, UniProt P00533 25-1210)
# T2 construct: whole, on cells; also called EGFR expressed by cells
# Experiment: phage binding to A-431 cells at 4 °C, titer ratio corrected for the number of collected cells
# Protocol: A-431 cells were inoculated in a 6-well culture plate at 40×10⁴ cells/well and cultured at 37° C. in the condition of 5% CO₂ overnight. The plate was incubated at 4° C. for 30 minutes and a medium in each well was removed, and treated by washing with 1 mL of 1% BSA/PBS twice. […] After the reaction, the reaction solution was removed and washed with 1 mL of 1% BSA/PBS ten times to remove non-binding phages. Thereto was added 100 μl of a 0.05% trypsin/0.53 mM EDTA solution and the reaction solution was incubated at 37° C. for about 10 minutes and added with 900 μl of a growth medium to prepare a collected phage solution. A titer of each collected phage solution was measured.
row,Binder,fold titer ratio over that of the M13KE phage
1,B3,45 times

# Molecular target: T2, EGFR expressed by A-431 cells
# Experiment: confocal fluorescence microscopy of A-431 cells with 100 µM FITC-labeled peptide
# Protocol: A-431 cells were inoculated in a glass bottom dish to be 20×10⁴ cells/dish and MCF7 cells were inoculated in a glass bottom dish to be 75×10⁴ cells/dish, and cultured at 37° C. in the condition of CO₂ for 24 hours. After culturing each kind of the cells for a specified time, EGF was added to have a concentration of 100 ng/mL and the mixture was cultured for 6 days. Thereafter, the culture solution in the dish was removed and washed with 1000 μL of a growth medium at 37° C. ten times. […] A staining fluid was removed and washed with 1 mL of a growth medium at 37° C. three times and thereto was finally added 1 mL of the medium. For observation, fluorescent observation was carried out by irradiating an exciting light laser with a wavelength of 488 nm using a confocal microscope (Leica SP2).
row,Binder,binding result
1,{FITC-Ahx}-WHLSDLWQNAWH [Pep055-F (FITC-labeled Pep055)],binds

# Molecular target: T1, recombinant human EGFR/Fc chimera …
# Experiment: phage binding to plate-coated protein, titer ratio
# Protocol: After removal of the blocking buffer, the wells were washed with 200 μl of 0.5% TBST being the washing solution three times and thereto was finally added 100 μl of 0.5% TBST. […] In the reaction, the mixture was gently shaken at room temperature for 1 hour. The reaction solution was removed and the wells were washed with 200 μl of 0.5% TBST ten times, 100 μl of 0.2 M glycine-HCl (pH 2.2) was added to the wells and stirred by pipetting, thereafter gently shaking at room temperature for 10 minutes. The eluate was collected to a microtube from the wells and added with 15 μl of 1 M Tris-HCl (pH 9.1) to be neutralized and a target binding phage solution was thus obtained. The binding ability of the collected phage was examined by a measurement of a titer.
# A rhEGFR that is a target protein, a recombinant human ErbB2(rhErbB2, PROSPEC) as a HER2 protein belonging to the ErbB family same as an EGFR, are combinant human IGF-1R, CF(rhIGF-1R, R&D Systems) as an IGF-1R protein that is one of extracellular proteins were added to a 96-well microplate to be 1 μg/well, and stood still at 4° C. overnight to be thus formed into a solid phase. A protein solution was removed, 300 μl of a blocking buffer was added and the mixture was incubated at 37° C. for 1 hour to thus block the wells. After removal of the blocking buffer, the wells were washed three times with 200 μl of 0.5% TBST washing solution, and finally 100 μl of 0.5% TBST was added thereto. […] In the reaction, the mixture was gently shaken at room temperature for 1 hour. The reaction solution was removed, the wells were washed with 200 μl of 0.5% TEST ten times, and 100 μl of 0.2 M glycine-HCl (pH 2.2) was then added to the wells and stirred by pipetting, thereafter gently shaking at room temperature for 10 minutes. The eluate was collected to a microtube from the wells and added with 15 μl of 1 M Tris-HCl (pH 9.1) to be neutralized and a target binding phage solution was thus obtained.
Binder,fold binding to rhEGFR over binding to BSA,fold binding to rhEGFR over binding to rhErbB2,fold binding to rhEGFR over binding to rhIGF-1R,fold binding to rhEGFR over binding to rhIgG1
B3,3810 times,1760 times,2830 times,1660 times
"FHDWLPEVSPPD (peptide, not shown: large carriers, tested as phage particles) [I-1012 phage (peptide displayed phage from the D12 library)]",3100 times,1580 times,4340 times,3420 times
"LHQSEWMYVDIH (peptide, not shown: large carriers, tested as phage particles) [I-1015 phage (peptide displayed phage from the D12 library)]",14000 times,4740 times,7710 times,19000 times
